Assay results: article PMC5955111, “The multifunctional protein YB-1 potentiates PARP1 activity and decreases the efficiency of PARP1 inhibitors”

What was measured:
YB-1 = YB-1 (human, UniProt P67809 1-324); test: fluorescence anisotropy; no PARP1; 100 nM DNA, 0-1600 nM YB-1; 1x RB (composition not in the material); anisotropy at 25 C; EMSA: 37 C 10 min, 7.6% native PAGE in 25 mM Tris-borate pH 8.3 at 4 C; DNA 100 nM (anisotropy), 40 nM in Methods vs 100 nM in Figure 1B legend (EMSA); conditions: protein: recombinant; tags: His-tag; label: 3'-FAM on ODN1; for gel shift ODN1 also 5'-32P; blunt 32-bp duplex with a nick between ODN2 and ODN3; ODN1:ODN2:ODN3 annealed 1:1.2:1.2
YB-1, sequence (P67809 whole entry): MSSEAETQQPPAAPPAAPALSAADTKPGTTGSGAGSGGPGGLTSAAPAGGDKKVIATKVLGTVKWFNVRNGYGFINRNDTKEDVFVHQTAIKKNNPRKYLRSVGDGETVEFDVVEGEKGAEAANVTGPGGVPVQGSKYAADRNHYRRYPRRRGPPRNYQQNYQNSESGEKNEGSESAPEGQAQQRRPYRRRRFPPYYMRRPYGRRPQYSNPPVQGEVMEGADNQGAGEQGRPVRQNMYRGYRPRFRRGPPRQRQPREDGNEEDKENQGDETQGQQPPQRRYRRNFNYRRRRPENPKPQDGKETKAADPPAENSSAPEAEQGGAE

YB-1;PARP1 = YB-1;PARP1 (human;human, UniProt P67809;P09874 1-324;1-1014, |); test: fluorescence anisotropy; 200 nM PARP1, 100 nM DNA, 0-1600 nM YB-1; ternary complex; 1x RB (composition not in the material); anisotropy at 25 C; EMSA: 37 C 10 min, 7.6% native PAGE in 25 mM Tris-borate pH 8.3 at 4 C; DNA 100 nM (anisotropy), 40 nM in Methods vs 100 nM in Figure 1B legend (EMSA); conditions: protein: recombinant;recombinant; tags: His-tag;; label: 3'-FAM on ODN1; for gel shift ODN1 also 5'-32P; blunt 32-bp duplex with a nick between ODN2 and ODN3; ODN1:ODN2:ODN3 annealed 1:1.2:1.2
YB-1;PARP1, sequence (P67809 whole entry, chain 1 of 2): as the sequence (P67809 whole entry) above
YB-1;PARP1, sequence (P09874 whole entry, chain 2 of 2): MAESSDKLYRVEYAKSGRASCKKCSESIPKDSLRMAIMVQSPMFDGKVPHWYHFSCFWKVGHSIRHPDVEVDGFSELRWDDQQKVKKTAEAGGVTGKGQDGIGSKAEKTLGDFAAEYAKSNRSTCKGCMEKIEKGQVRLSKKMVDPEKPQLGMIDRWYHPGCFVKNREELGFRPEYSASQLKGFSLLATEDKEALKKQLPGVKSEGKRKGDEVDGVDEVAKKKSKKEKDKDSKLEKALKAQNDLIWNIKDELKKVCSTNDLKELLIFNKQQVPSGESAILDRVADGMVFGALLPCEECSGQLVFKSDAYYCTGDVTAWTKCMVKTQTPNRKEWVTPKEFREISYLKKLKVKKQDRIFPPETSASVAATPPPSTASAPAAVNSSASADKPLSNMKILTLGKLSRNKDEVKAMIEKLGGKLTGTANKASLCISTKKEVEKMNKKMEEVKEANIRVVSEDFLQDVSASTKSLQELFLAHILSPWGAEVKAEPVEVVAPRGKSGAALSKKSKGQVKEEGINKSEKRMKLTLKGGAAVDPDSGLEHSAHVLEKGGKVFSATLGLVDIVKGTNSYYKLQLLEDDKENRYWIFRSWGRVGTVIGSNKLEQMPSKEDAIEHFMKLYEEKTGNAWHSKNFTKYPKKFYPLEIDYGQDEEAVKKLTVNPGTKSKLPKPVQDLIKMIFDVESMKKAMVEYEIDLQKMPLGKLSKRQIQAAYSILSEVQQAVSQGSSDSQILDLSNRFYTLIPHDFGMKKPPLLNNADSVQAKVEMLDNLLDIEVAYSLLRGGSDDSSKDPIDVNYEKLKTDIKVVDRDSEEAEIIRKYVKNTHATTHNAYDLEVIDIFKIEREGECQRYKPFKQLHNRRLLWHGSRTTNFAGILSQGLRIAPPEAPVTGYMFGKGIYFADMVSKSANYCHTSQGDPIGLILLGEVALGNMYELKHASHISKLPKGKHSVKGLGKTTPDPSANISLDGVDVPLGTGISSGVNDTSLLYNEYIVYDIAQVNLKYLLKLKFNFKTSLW

B1: Nick (ODN1+ODN2+ODN3) (dsDNA)
DNA 1: GGAAGACCCTGACGTTTCCCAACTTTATCGCC
DNA 2: GGCGATAAAGTTGGG
DNA 3: AAACGTCAGGGTCTTCC
- binding result (YB-1): binds
- binding result (YB-1;PARP1): binds
